Substitutions are numbered along the chain they refer to.

This note sets out measurements from patent US20200317768A1 (published 2020).

Sequences and labels used below:
T1: human FcγRIIb extracellular domain, C-terminal His-tag (human, UniProt P31994 43-217)
T1 construct: Soluble extracellular domain expressed in FreeStyle 293 cells; also called FcgRIIb; not shown: His-tag added to the C-terminus
T1 sequence: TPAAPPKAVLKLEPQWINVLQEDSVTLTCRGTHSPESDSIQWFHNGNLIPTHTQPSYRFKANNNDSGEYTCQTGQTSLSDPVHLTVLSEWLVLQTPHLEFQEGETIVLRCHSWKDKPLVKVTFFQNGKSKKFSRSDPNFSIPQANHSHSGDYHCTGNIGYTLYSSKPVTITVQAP

T2: human FcγRIIaH extracellular domain, C-terminal His-tag (human, UniProt P12318 34-217)
T2 construct: Soluble extracellular domain expressed in FreeStyle 293 cells; also called FcgRIIaH; human FcγRIIa (type H); not shown: His-tag added to the C-terminus
T2 sequence: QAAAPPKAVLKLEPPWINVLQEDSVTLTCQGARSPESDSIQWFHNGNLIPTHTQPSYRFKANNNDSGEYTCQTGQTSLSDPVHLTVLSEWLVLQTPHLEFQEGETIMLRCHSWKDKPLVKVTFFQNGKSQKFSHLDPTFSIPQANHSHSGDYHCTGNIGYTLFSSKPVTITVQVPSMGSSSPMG

T3: human FcγRIIaR extracellular domain, C-terminal His-tag (human, UniProt P12318 34-217)
T3 construct: Soluble extracellular domain expressed in FreeStyle 293 cells; also called FcgRIIaR; human FcγRIIa (type R); not shown: His-tag added to the C-terminus
T3 chain: T2 sequence with H134R

T4: Cynomolgus monkey latent myostatin (cynomolgus monkey, UniProt Q95J86 25-266; Q95J86 267-375)
T4 construct: Latent form = complex of two propeptides and the mature dimer; also called Cyno latent myostatin
T4 sequence 1: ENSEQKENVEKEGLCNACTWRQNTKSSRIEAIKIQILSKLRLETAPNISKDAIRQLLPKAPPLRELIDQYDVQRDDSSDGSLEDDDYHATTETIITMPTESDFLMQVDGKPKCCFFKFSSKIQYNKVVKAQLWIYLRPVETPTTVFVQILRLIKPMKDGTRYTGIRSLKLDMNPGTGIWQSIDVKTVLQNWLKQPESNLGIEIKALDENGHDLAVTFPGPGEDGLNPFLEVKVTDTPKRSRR
T4 sequence 2: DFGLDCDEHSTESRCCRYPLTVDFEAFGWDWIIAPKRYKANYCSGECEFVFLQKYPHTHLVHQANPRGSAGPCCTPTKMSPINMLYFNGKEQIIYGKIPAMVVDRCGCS

T5: Human latent myostatin (human, UniProt O14793 25-266; O14793 267-375)
T5 construct: also called human myostatin latent form
T5 sequence 1: T4 sequence 1 with A52V
T5 sequence 2: T4 sequence 2

B1: MS103240H795-TT73/M103202L1045-SK1 (antibody)
heavy: QVQLVESGGGLVQPGGSLRLSCAVSGIDLSHDDISWVRQAPGKGLEWVSIISYAGSTYYASWAKGRLTISKDTSKNQVVLTMTNMDPVDTATYYCARGVPAYSHGGDLWGQGTLVTVSSASTKGPSVFPLAPSSKSTSGGTAALGCLVKDYFPEPVTVSWNSGALTSGVHTFPAVLQSSGLYSLSSVVTVPSSSLGTQTYICNVNHKPSNTKVDKKVEPKSCDKTHTCPPCPAPELLGGDSVFLFPPKPKDVLMISRTPEVTCVVIDVSHEDPEVKFNWYVDGVEVHNAKTKPREEQYNSTYRVVSVLPVLHRDWLNGKEYKCKVSNKALPKPIEKTISKAKGQPREPQVYTLPPSREEMTKNQVSLTCLVKGFYPSDIAVEWESNGQPENNYKTTPPVLDSDGSFFLYSKLTVKKSRWQQGNVFSCSVLHEALHAHTTRKELSLSP
light: DIVMTQSPATLSLSPGERATLSCTTSQSVYHENWLSWFQQKPGQPPKLLIYWASTLAYGVPSRFSGSGSGTDFTLTISSLQPEDAATYYCAGGYGGGRYAFGQGTKVEIKRTVAAPSVFIFPPSDEQLKSGTASVVCLLNNFYPREAKVQWKVDNALQSGNSQESVTEQDSKDSTYSLSSTLTLSKADYEKHKVYACEVTHQGLSSPVTKSFNRGEC
notes: copies: 2 + 2
B2: MS103240H795-TT93/M103202L1045-SK1 (antibody)
heavy: B1 heavy with L236Y
light: B1 light
notes: copies: 2 + 2
B3: MS103240H795-TT91/M103202L1045-SK1 (antibody)
heavy: B1 heavy with L236Y, P345R, K415D
light: B1 light
B4: MS103240H795-TT90/M103202L1045-SK1 (antibody)
heavy: B1 heavy with L236Y, P345R, K415D, L430M, T438Y
light: B1 light
B5: MS103240H795-TT92/M103202L1045-SK1 (antibody)
heavy: B1 heavy with L236Y, L430M, T438Y
light: B1 light
notes: copies: 2 + 2
B6: MS_M103245H795-SG1/M103202L1045-SK1 (antibody, human IgG1, kappa, V domains shown)
VH: QVTLKESGPVLVKPTETLTLTCKVSGIDLSHDDISWVRQAPGKGLEWVSIISYAGSTYYASWAKGRLTISKDTSKNQVVLTMTNMDPVDTATYYCARGVPAYSHGGDLWGQGTLVTVSS
VL: DIVMTQSPATLSLSPGERATLSCTTSQSVYHENWLSWFQQKPGQPPKLLIYWASTLAYGVPSRFSGSGSGTDFTLTISSLQPEDAATYYCAGGYGGGRYAFGQGTKVEIKR
notes: also called MS1032LO21-SG1

The target of the first test is T6, human FcγRIIIaV extracellular domain, C-terminal His-tag (human, UniProt P08637 17-208).
T6 construct: Soluble extracellular domain expressed in FreeStyle 293 cells; also called FcgRIIIaV; not shown: His-tag added to the C-terminus
T6 sequence (P08637 17-208 F176V): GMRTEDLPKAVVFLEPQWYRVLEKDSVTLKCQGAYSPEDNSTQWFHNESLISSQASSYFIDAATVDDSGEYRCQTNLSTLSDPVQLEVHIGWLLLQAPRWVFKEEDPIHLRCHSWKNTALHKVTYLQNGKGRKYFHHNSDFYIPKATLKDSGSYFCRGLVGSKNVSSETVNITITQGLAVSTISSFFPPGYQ
As to the kind of experiment: SPR (BIACORE), antibody captured by mouse anti-human IgG kappa light chain, FcgR extracellular domain as analyte, 25 C. The protocol:
(§1) The kinetic analysis of interactions between these antibodies and FcγR was carried out using BIACORE® T200 or BIACORE® 4000 (GE Healthcare). HBS-EP+ (GE Healthcare) was used as the running buffer, and the measurement temperature was set to 25° C. A chip produced by immobilizing Protein A. Protein A/G or mouse anti-human IgG kappa light chain (BD Biosciences) onto a Series S Sensor Chip CM4 or CM5 (GE Healthcare) by the amine-coupling method was used. […] After the measurement, the antibody captured on the chip was washed off by allowing reaction with 10 mM glycine-HCl, pH1.5 and 25 mM NaOH so that the chip was regenerated and used repeatedly. The sensorgrams obtained as measurement results were analyzed by the 1:1 Langmuir binding model using the BIACORE® Evaluation Software to calculate the binding rate constant ka (L/mol/s) and dissociation rate constant kd (l/s), and the dissociation constant KD (mol/L) was calculated from these values. […] Regarding such interactions, KD values were calculated using the following 1:1 binding model described in BIACORE® T100 Software Handbook BR1006-48 Edition AE.
(§2) Furthermore, the substitutions used in Example 29 for improving antibody half-life and reducing binding to rheumatoid factor were introduced into human FcγRIIb-enhanced Fc variants and their affinity against human FcγRs were analyzed (Table 29). In this SPR analysis, all the data were obtained using mouse anti-human IgG kappa light chain for capturing the antibodies of interest.
For the molecule B1, the Kd (as a rule, the concentration at which binding is half-saturated) amounted to 550 µM.
Regarding B2, the affinity, expressed as Kd, was 470 µM.
Same read-out and setting: next, B3: 450 µM; B4: 360 µM.
In turn, B5 registered an equilibrium dissociation constant (Kd) of 490 µM.

The target of the next test is T1, human FcγRIIb extracellular domain, …. Described as above. As to the method:
as §1, §2
Turning to B1, the Kd worked out at 0.42 µM.
For the molecule B2, binding was characterised by a dissociation constant (Kd) of 0.31 µM.
B3: binding was put at a Kd of 0.32 µM.
Regarding B4, the Kd was determined as 0.3 µM.
Molecule B5 returned a Kd of 0.28 µM.

The next test deals with T2, human FcγRIIaH extracellular domain, …. The description is as above. The protocol:
as §1, §2
For the molecule B1, the Kd is 74 µM.
Same read-out and setting: the figure for B2 is 52 µM.
Regarding B3, the Kd was 46 µM.
B4 returned a Kd of 29 µM.
B5 registered a Kd of 40 µM.

The target of the next test is T3, human FcγRIIaR extracellular domain, …. Described as above. The protocol: as §1, §2
In the case of B1, the Kd came out at 19 µM.
As for B2, the Kd turned out to be 24 µM.
As for B3, the Kd is 30 µM.
B4: the Kd was found to be 25 µM.
B5 came in with a Kd of 20 µM.

For a further test, the target named is T4, Cynomolgus monkey latent myostatin. As to the kind of experiment: SPR (BIACORE T200) 37C, pH 5.8, antibody captured by ProA/G. The protocol: (§3) ProA/G (Pierce) was immobilized onto all flow cells of a CM4 chip using an amine coupling kit (GE Healthcare). All antibodies and analytes were prepared in ACES pH7.4 or pH5.8 buffer containing 20 mM ACES, 150 mM NaCl, 1.2 mM CaCl₂, 0.05% TWEEN®) 20, 0.005% NaN₃. […] Human, cyno, and mouse latent myostatin was injected at 3.125 to 50 nM prepared by two-fold serial dilution, followed by dissociation. The sensor surface was regenerated each cycle with 10 mM Glycine HCl pH1.5. Binding affinity was determined by processing and fitting the data to a 1:1 binding model using BIACORE® T200 Evaluation software, version 2.0 (GE Healthcare).
In turn, B6 came in with a Kd of 0.031 µM.

Another test has as its target T5, Human latent myostatin. The test is described as above. As to the method: as §3
On to B6, for which the Kd was determined as 0.0523 µM.

The next test concerns the target T6, human FcγRIIIaV extracellular domain, …. Nature of the test: SPR (BIACORE); KD of SG1 divided by KD of the variant. As to the method:
as §1, §2
Take B1: the “KD fold for humanFcgRs (SG1 = 1)” value came out at 0.001 fold.
On the same count and under the same terms, next, B2: 0.002 fold; B3: 0.002 fold; B4: 0.002 fold.
Regarding B5, the “KD fold for humanFcgRs (SG1 = 1)” value came to 0.001 fold.

For a further test, the target named is T1, human FcγRIIb extracellular domain, …. Described as above. As to the method: as §1, §2
On to B1, for which the “KD fold for humanFcgRs (SG1 = 1)” value was determined as 11.2 fold.
B2: the “KD fold for humanFcgRs (SG1 = 1)” value was 15.2 fold.
With B3, the “KD fold for humanFcgRs (SG1 = 1)” value is 14.7 fold.
With B4, the “KD fold for humanFcgRs (SG1 = 1)” value was found to be 15.7 fold.
As to B5, the “KD fold for humanFcgRs (SG1 = 1)” value was determined as 16.8 fold.

The target in another test is T2, human FcγRIIaH extracellular domain, …. The test is described as above. As to the method: as §1, §2
As for B1, the “KD fold for humanFcgRs (SG1 = 1)” value is 0.013 fold.
Regarding B2, the “KD fold for humanFcgRs (SG1 = 1)” value is 0.019 fold.
In the case of B3, the “KD fold for humanFcgRs (SG1 = 1)” value was 0.021 fold.
As for B4, the “KD fold for humanFcgRs (SG1 = 1)” value was 0.033 fold.
On to B5, for which the “KD fold for humanFcgRs (SG1 = 1)” value came to 0.024 fold.

Another test has as its target T3, human FcγRIIaR extracellular domain, …. The description is as above. As to the method:
as §1, §2
Regarding B1, the “KD fold for humanFcgRs (SG1 = 1)” value amounted to 0.06 fold.
For the molecule B2, the “KD fold for humanFcgRs (SG1 = 1)” value turned out to be 0.05 fold.
B3: the “KD fold for humanFcgRs (SG1 = 1)” value is 0.04 fold.
As to B4, the “KD fold for humanFcgRs (SG1 = 1)” value turned out to be 0.05 fold.
For B5, the “KD fold for humanFcgRs (SG1 = 1)” value was 0.06 fold.

A further test addresses T4, Cynomolgus monkey latent myostatin. Nature of the test: SPR (BIACORE T200) 37C, pH 7.4, antibody captured by ProA/G. The protocol:
as §3
Take B6: the Kd was determined as 0.000309 µM.

Another test deals with T5, Human latent myostatin. The test is described as above. The protocol: as §3
As to B6, the Kd was 0.000257 µM.

The target of another test is T4, Cynomolgus monkey latent myostatin. As to the kind of experiment: SPR 37C; KD pH 5.8 / KD pH 7.4. As to the method:
as §3
B6: the “ratio of KD at pH 5.8/pH 7.4” value worked out at 100.

The target of a further test is T5, Human latent myostatin. As to the kind of experiment: SPR 37C; KD pH 5.8 / KD pH 7.4. As to the method: as §3
In the case of B6, the “ratio of KD at pH 5.8/pH 7.4” value came out at 204.
